Laboratory results from patent US20240245796A1 (PROFOUNDBIO US, published 2024).

Key:
[1] = molecular target: T1, human FOLR1 extracellular domain linked to His tag (human, UniProt P15328 25-233, limits assumed); experiment: BLI, Ag 125 nM over Ab on anti-hIgG Fc tip
T1 construct: extracellular domain; It may be the same product as m13; also called Hu-FRα; Hu-Ag; not shown: His tag

[2] = molecular target: T2, cynomolgus monkey FOLR1 extracellular domain linked to His tag (cynomolgus monkey, UniProt A0A2K5U044 25-233); experiment: BLI, Ag 125 nM over Ab on anti-hIgG Fc tip
T2 construct: extracellular domain; Antigen in solution in BLI; It may be the same product as m14; also called Cyno-Ag; not shown: His tag

[3] = molecular target: T3, human FOLR3 extracellular domain linked to His tag (human, UniProt P41439 23-245, limits assumed); experiment: BLI, global 1:1 fit (250 nM row); all responses below quantification
T3 construct: extracellular domain; Antigen in solution in BLI; also called Hu-FRg; not shown: His tag

[4] = molecular target: T3, human FOLR3 extracellular domain linked …; experiment: BLI, global 1:1 fit (7.82 nM row); all responses below quantification
[5] = molecular target: T1, human FOLR1 extracellular domain linked …; experiment: BLI, Ag 31.3 nM over Ab on anti-hIgG Fc tip
[6] = molecular target: T2, cynomolgus monkey FOLR1 extracellular …; experiment: BLI, Ag 31.3 nM over Ab on anti-hIgG Fc tip
[7] = molecular target: T1, human FOLR1 extracellular domain linked …; experiment: BLI, global 1:1 fit (250 nM row)
[8] = molecular target: T4, human FOLR2 extracellular domain linked to His tag (human, UniProt P14207 17-230, limits assumed); experiment: BLI, global 1:1 fit (250 nM row)
T4 construct: extracellular domain; Antigen in solution in BLI; also called Hu-FRb; not shown: His tag

[9] = molecular target: T5, rat FOLR1 extracellular domain linked to His tag (rat); experiment: BLI, Ag 62.5 nM; * = below range of quantification
T5 construct: extracellular domain; Antigen in solution in BLI; also called Rat-Ag

[10] = molecular target: T2, cynomolgus monkey FOLR1 extracellular …; experiment: BLI, global 1:1 fit (7.82 nM row)
[11] = molecular target: T1, human FOLR1 extracellular domain linked …; experiment: BLI, global 1:1 fit (31.3 nM row)
[12] = molecular target: T2, cynomolgus monkey FOLR1 extracellular …; experiment: BLI, global 1:1 fit (31.3 nM row)
[13] = molecular target: T3, human FOLR3 extracellular domain linked …; experiment: BLI, Ag 31.3 nM; * = below range of quantification
[14] = molecular target: T3, human FOLR3 extracellular domain linked …; experiment: BLI, global 1:1 fit (125 nM row); all responses below quantification
[15] = molecular target: T6, mouse FOLR1 extracellular domain linked to His tag (mouse, UniProt P35846 25-232, limits assumed); experiment: BLI, global 1:1 fit (125 nM row); only the 500 nM response quantifiable
T6 construct: extracellular domain; Antigen in solution in BLI; also called Mouse-Ag; not shown: His tag

[16] = molecular target: T1, human FOLR1 extracellular domain linked …; experiment: BLI, global 1:1 fit (500 nM row)
[17] = molecular target: T2, cynomolgus monkey FOLR1 extracellular …; experiment: BLI, global 1:1 fit (500 nM row)
[18] = molecular target: T3, human FOLR3 extracellular domain linked …; experiment: BLI, global 1:1 fit (31.3 nM row); all responses below quantification
[19] = molecular target: T1, human FOLR1 extracellular domain linked …; experiment: BLI, global 1:1 fit (62.5 nM row)
[20] = molecular target: T4, human FOLR2 extracellular domain linked …; experiment: BLI, global 1:1 fit (62.5 nM row)
[21] = molecular target: T6, mouse FOLR1 extracellular domain linked …; experiment: BLI, global 1:1 fit (500 nM row); only the 500 nM response quantifiable
[22] = molecular target: T6, mouse FOLR1 extracellular domain linked …; experiment: BLI, global 1:1 fit (15.6 nM row); only the 500 nM response quantifiable

T6 sequence (P35846 25-232 limits assumed): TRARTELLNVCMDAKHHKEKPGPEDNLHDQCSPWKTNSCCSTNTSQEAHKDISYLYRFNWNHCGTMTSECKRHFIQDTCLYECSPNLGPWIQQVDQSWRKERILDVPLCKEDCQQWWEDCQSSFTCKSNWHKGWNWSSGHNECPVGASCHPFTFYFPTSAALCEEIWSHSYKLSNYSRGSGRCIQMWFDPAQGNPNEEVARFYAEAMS
T4 sequence (P14207 17-230 limits assumed): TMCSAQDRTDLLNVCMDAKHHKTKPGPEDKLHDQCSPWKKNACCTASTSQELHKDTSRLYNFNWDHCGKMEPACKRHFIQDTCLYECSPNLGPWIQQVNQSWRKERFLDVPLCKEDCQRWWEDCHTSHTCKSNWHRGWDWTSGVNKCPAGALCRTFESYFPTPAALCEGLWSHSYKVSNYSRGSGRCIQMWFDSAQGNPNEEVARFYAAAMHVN
T1 sequence (P15328 25-233 limits assumed): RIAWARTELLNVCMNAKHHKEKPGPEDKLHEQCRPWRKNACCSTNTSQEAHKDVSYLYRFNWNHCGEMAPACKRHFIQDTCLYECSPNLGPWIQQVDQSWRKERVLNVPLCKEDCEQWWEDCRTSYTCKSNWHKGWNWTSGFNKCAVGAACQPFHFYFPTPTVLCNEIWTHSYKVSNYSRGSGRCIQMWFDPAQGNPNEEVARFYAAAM
T2 sequence (A0A2K5U044 entry or part of it): as the sequence (P15328 25-233 limits assumed) above, with I2T, W4R, R37K, A146P, H171Y counted along it
T3 sequence (P41439 23-245 limits assumed): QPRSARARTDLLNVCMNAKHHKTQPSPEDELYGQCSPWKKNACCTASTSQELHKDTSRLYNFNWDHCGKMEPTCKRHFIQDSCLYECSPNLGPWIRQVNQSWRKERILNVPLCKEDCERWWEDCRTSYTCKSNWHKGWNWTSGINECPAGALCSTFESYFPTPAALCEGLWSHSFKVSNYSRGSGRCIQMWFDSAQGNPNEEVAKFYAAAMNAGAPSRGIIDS

B1: F131 (antibody, V domains shown)
VH: EVQLLESGGGVVQPGRSLRLSCAASGFTFSSYGMHWVRQAPGKGLEWVAVISYDGSNKYYADSVKGRFTISRANSKNTLYLQMNSLRAEDTAVYYCARPRAYYGAYGSSFDYWGQGTQVTVSS
VL: EIVMTQSPSSVSASVGDRVAITCRASQGISSWLAWYQQKPGKAPKLLIYAASSLQSGVPSRFSGSGSGTDFTLTISSLQPEDFATYYCQQSYSTPLTFGGGTKVDIK
notes: also called clone F131; F131 mAb
Response [1]: 0.146 | Response [2]: 0.177 | koff [3]: 0.217 s⁻¹ | kon [3]: 1660 M⁻¹ s⁻¹ | koff [4]: 0.217 s⁻¹ | kon [4]: 1660 M⁻¹ s⁻¹ | Response [5]: 0.0869 | Response [6]: 0.084 | Kd [7]: 5.3 nM | koff [7]: 0.0012 s⁻¹ | kon [7]: 226000 M⁻¹ s⁻¹ | Kd [8]: 142 nM | koff [8]: 0.0784 s⁻¹ | kon [8]: 552000 M⁻¹ s⁻¹ | Response [9]: -0.00606 | Kd [10]: 8.15 nM | koff [10]: 0.00157 s⁻¹ | kon [10]: 193000 M⁻¹ s⁻¹ | Kd [11]: 1.53 nM | koff [11]: 0.000338 s⁻¹ | kon [11]: 221000 M⁻¹ s⁻¹ | Kd [12]: 8.15 nM | koff [12]: 0.00157 s⁻¹ | kon [12]: 193000 M⁻¹ s⁻¹ | Response [13]: 0.0028 | koff [14]: 0.217 s⁻¹ | kon [14]: 1660 M⁻¹ s⁻¹ | Kd [15]: 2960 nM | koff [15]: 0.301 s⁻¹ | kon [15]: 102000 M⁻¹ s⁻¹ | koff [16]: 0.000338 s⁻¹ | kon [16]: 221000 M⁻¹ s⁻¹ | Kd [17]: 8.15 nM | koff [17]: 0.00157 s⁻¹ | kon [17]: 193000 M⁻¹ s⁻¹ | koff [18]: 0.217 s⁻¹ | kon [18]: 1660 M⁻¹ s⁻¹ | Kd [19]: 5.3 nM | koff [19]: 0.0012 s⁻¹ | kon [19]: 226000 M⁻¹ s⁻¹ | Kd [20]: 142 nM | koff [20]: 0.0784 s⁻¹ | kon [20]: 552000 M⁻¹ s⁻¹ | koff [21]: 0.301 s⁻¹ | kon [21]: 102000 M⁻¹ s⁻¹ | Kd [22]: 2960 nM | koff [22]: 0.301 s⁻¹ | kon [22]: 102000 M⁻¹ s⁻¹

B2: F131-LD038 (antibody, V domains shown)
VH: B1 VH
VL: B1 VL
modifications: drug-linker LD038 (PB038, maleimide-PEG unit-Val-Cit-PAB-exatecan) on cysteines freed by TCEP reduction; positions not given
notes: Antibody-drug conjugate of F131 (IgG1) with LD038; also called anti-huFOLR-1 conjugate F131-LD038; F131-038
Response [1]: 0.158 | Response [2]: 0.152 | koff [3]: 0.233 s⁻¹ | koff [4]: 0.233 s⁻¹ | Response [5]: 0.0866 | Response [6]: 0.0702 | Kd [7]: 4.79 nM | koff [7]: 0.00121 s⁻¹ | kon [7]: 252000 M⁻¹ s⁻¹ | Kd [8]: 84.4 nM | koff [8]: 0.0813 s⁻¹ | kon [8]: 963000 M⁻¹ s⁻¹ | Response [9]: -0.00393 | Kd [10]: 8.82 nM | koff [10]: 0.0016 s⁻¹ | kon [10]: 181000 M⁻¹ s⁻¹ | Kd [11]: 4.8 nM | koff [11]: 0.00107 s⁻¹ | kon [11]: 224000 M⁻¹ s⁻¹ | Kd [12]: 8.82 nM | koff [12]: 0.0016 s⁻¹ | kon [12]: 181000 M⁻¹ s⁻¹ | Response [13]: 0.0079 | koff [14]: 0.233 s⁻¹ | Kd [15]: 2870 nM | koff [15]: 0.266 s⁻¹ | kon [15]: 92600 M⁻¹ s⁻¹ | Kd [16]: 4.8 nM | koff [16]: 0.00107 s⁻¹ | kon [16]: 224000 M⁻¹ s⁻¹ | Kd [17]: 8.82 nM | koff [17]: 0.0016 s⁻¹ | kon [17]: 181000 M⁻¹ s⁻¹ | koff [18]: 0.233 s⁻¹ | Kd [19]: 4.79 nM | koff [19]: 0.00121 s⁻¹ | kon [19]: 252000 M⁻¹ s⁻¹ | Kd [20]: 84.4 nM | koff [20]: 0.0813 s⁻¹ | kon [20]: 963000 M⁻¹ s⁻¹ | Kd [21]: 2870 nM | koff [21]: 0.266 s⁻¹ | kon [21]: 92600 M⁻¹ s⁻¹ | Kd [22]: 2870 nM | koff [22]: 0.266 s⁻¹ | kon [22]: 92600 M⁻¹ s⁻¹
